Assay results from patent US20260001928A1 (CORTERIA PHARMACEUTICALS, priority 2022, published 2026).
*1 amine or outer side, *2 acyl side, *3 side chain or, on linkers, in order; H or OH if unused. Primed or numbered codes have the meaning given here. Where no end group is shown, it is not given here. Side-chain parts run from the residue outwards. [ ]: non-standard residue; d: D form. The star is where a group is joined. Thp′ = 4-amino-tetrahydro-2H-pyran-4-yl-acetic acid, O=C(CC1(N[*:1])CCOCC1)[*:2]; C20 diacid = O=C(O)CCCCCCCCCCCCCCCCCCC(=O)*; C18 diacid = O=C(O)CCCCCCCCCCCCCCCCC(=O)*; C16 diacid = O=C(O)CCCCCCCCCCCCCCC(=O)*; γGlu = O=C(O)[C@H](CCC(=O)[*:2])N[*:1]; NMeI = CC[C@H](C)[C@H](NC)C(=O)O; Thp″ = not defined here; Pentanoyl = CCCCC(=O)*; AEEA = NCCOCCOCC(=O)O; Aib = CC(C)(N)C(=O)O

T1: CRF1R receptor (UniProt P34998 24-415, limits assumed)
T1 sequence (looked up): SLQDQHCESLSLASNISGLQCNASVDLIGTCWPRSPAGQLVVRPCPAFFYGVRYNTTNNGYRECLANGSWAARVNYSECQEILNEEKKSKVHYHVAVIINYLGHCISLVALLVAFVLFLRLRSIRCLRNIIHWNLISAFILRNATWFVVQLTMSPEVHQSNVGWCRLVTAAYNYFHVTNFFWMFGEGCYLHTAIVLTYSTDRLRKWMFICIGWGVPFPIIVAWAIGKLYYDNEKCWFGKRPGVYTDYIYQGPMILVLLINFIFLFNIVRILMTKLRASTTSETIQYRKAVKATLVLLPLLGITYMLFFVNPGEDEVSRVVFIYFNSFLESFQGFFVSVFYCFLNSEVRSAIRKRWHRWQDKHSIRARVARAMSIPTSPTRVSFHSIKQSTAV


Key:
[1] = molecular target: human corticotropin-releasing factor 2a (CRF2a receptor) (human), Q13324; experiment: cell-based or functional assay
CRF1R receptor = molecular target: T1, CRF1R receptor; experiment: cell-based or functional assay

Chain of human corticotropin-releasing factor 2a (CRF2a receptor) (human), Q13324 (Q13324 20-411): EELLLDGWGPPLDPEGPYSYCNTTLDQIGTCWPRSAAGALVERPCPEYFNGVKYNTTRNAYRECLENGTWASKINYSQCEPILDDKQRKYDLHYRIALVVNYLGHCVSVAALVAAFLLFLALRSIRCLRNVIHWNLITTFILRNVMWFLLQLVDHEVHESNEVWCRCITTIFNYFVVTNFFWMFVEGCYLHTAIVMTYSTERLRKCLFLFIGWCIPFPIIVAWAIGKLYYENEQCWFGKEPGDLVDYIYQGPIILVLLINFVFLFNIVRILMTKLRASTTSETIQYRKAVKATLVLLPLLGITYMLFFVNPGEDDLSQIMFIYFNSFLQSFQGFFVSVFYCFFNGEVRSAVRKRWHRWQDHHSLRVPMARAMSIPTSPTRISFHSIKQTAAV

Binder | EC50 [nM] (cAMP) [1] | Emax (% I) (CRF1R receptor) [%]
H-IVLSLD[dV]PIKLK([AEEA-AEEA-γGlu-C18 diacid])QILLKQERQKKQREQAEKNKQILEQV-NH2 (SMILES CC[C@H](C)[C@H](N)C(=O)N[C@H](C(=O)N[C@@H](CC(C)C)C(=O)N[C@@H](CO)C(=O)N[C@@H](CC(C)C)C(=O)N[C@@H](CC(=O)O)C(=O)N[C@@H](C(=O)N1CCC[C@H]1C(=O)N[C@H](C(=O)N[C@@H](CCCCN)C(=O)N[C@@H](CC(C)C)C(=O)N[C@@H](CCCCNC(=O)COCCOCCNC(=O)COCCOCCNC(=O)CC[C@H](NC(=O)CCCCCCCCCCCCCCCCC(=O)O)C(=O)O)C(=O)N[C@@H](CCC(N)=O)C(=O)N[C@H](C(=O)N[C@@H](CC(C)C)C(=O)N[C@@H](CC(C)C)C(=O)N[C@@H](CCCCN)C(=O)N[C@@H](CCC(N)=O)C(=O)N[C@@H](CCC(=O)O)C(=O)N[C@@H](CCCNC(=N)N)C(=O)N[C@@H](CCC(N)=O)C(=O)N[C@@H](CCCCN)C(=O)N[C@@H](CCCCN)C(=O)N[C@@H](CCC(N)=O)C(=O)N[C@@H](CCCNC(=N)N)C(=O)N[C@@H](CCC(=O)O)C(=O)N[C@@H](CCC(N)=O)C(=O)N[C@@H](C)C(=O)N[C@@H](CCC(=O)O)C(=O)N[C@@H](CCCCN)C(=O)N[C@@H](CC(N)=O)C(=O)N[C@@H](CCCCN)C(=O)N[C@@H](CCC(N)=O)C(=O)N[C@H](C(=O)N[C@@H](CC(C)C)C(=O)N[C@@H](CCC(=O)O)C(=O)N[C@@H](CCC(N)=O)C(=O)N[C@H](C(N)=O)C(C)C)[C@@H](C)CC)[C@@H](C)CC)[C@@H](C)CC)C(C)C)C(C)C) [SEQ ID NO 150] | 0.25 | 
Ac-IVLSLD[dV]PIKLK([γGlu-C18 diacid])KILLEQEKQKKQREQAETN[Thp′]QILAQV-NH2 (SMILES CC[C@H](C)[C@H](NC(C)=O)C(=O)N[C@H](C(=O)N[C@@H](CC(C)C)C(=O)N[C@@H](CO)C(=O)N[C@@H](CC(C)C)C(=O)N[C@@H](CC(=O)O)C(=O)N[C@@H](C(=O)N1CCC[C@H]1C(=O)N[C@H](C(=O)N[C@@H](CCCCN)C(=O)N[C@@H](CC(C)C)C(=O)N[C@@H](CCCCNC(=O)CC[C@H](NC(=O)CCCCCCCCCCCCCCCCC(=O)O)C(=O)O)C(=O)N[C@@H](CCCCN)C(=O)N[C@H](C(=O)N[C@@H](CC(C)C)C(=O)N[C@@H](CC(C)C)C(=O)N[C@@H](CCC(=O)O)C(=O)N[C@@H](CCC(N)=O)C(=O)N[C@@H](CCC(=O)O)C(=O)N[C@@H](CCCCN)C(=O)N[C@@H](CCC(N)=O)C(=O)N[C@@H](CCCCN)C(=O)N[C@@H](CCCCN)C(=O)N[C@@H](CCC(N)=O)C(=O)N[C@@H](CCCNC(=N)N)C(=O)N[C@@H](CCC(=O)O)C(=O)N[C@@H](CCC(N)=O)C(=O)N[C@@H](C)C(=O)N[C@@H](CCC(=O)O)C(=O)N[C@H](C(=O)N[C@@H](CC(N)=O)C(=O)NC1(CC(=O)N[C@@H](CCC(N)=O)C(=O)N[C@H](C(=O)N[C@@H](CC(C)C)C(=O)N[C@@H](C)C(=O)N[C@@H](CCC(N)=O)C(=O)N[C@H](C(N)=O)C(C)C)[C@@H](C)CC)CCOCC1)[C@@H](C)O)[C@@H](C)CC)[C@@H](C)CC)C(C)C)C(C)C) |  | 11
H-IVLSLD[dV]PIKLK([γGlu-C16 diacid])QILLKQERQKKQREQAEKNVQILEQV-NH2 (SMILES CC[C@H](C)[C@H](N)C(=O)N[C@H](C(=O)N[C@@H](CC(C)C)C(=O)N[C@@H](CO)C(=O)N[C@@H](CC(C)C)C(=O)N[C@@H](CC(=O)O)C(=O)N[C@@H](C(=O)N1CCC[C@H]1C(=O)N[C@H](C(=O)N[C@@H](CCCCN)C(=O)N[C@@H](CC(C)C)C(=O)N[C@@H](CCCCNC(=O)CC[C@H](NC(=O)CCCCCCCCCCCCCCC(=O)O)C(=O)O)C(=O)N[C@@H](CCC(N)=O)C(=O)N[C@H](C(=O)N[C@@H](CC(C)C)C(=O)N[C@@H](CC(C)C)C(=O)N[C@@H](CCCCN)C(=O)N[C@@H](CCC(N)=O)C(=O)N[C@@H](CCC(=O)O)C(=O)N[C@@H](CCCNC(=N)N)C(=O)N[C@@H](CCC(N)=O)C(=O)N[C@@H](CCCCN)C(=O)N[C@@H](CCCCN)C(=O)N[C@@H](CCC(N)=O)C(=O)N[C@@H](CCCNC(=N)N)C(=O)N[C@@H](CCC(=O)O)C(=O)N[C@@H](CCC(N)=O)C(=O)N[C@@H](C)C(=O)N[C@@H](CCC(=O)O)C(=O)N[C@@H](CCCCN)C(=O)N[C@@H](CC(N)=O)C(=O)N[C@H](C(=O)N[C@@H](CCC(N)=O)C(=O)N[C@H](C(=O)N[C@@H](CC(C)C)C(=O)N[C@@H](CCC(=O)O)C(=O)N[C@@H](CCC(N)=O)C(=O)N[C@H](C(N)=O)C(C)C)[C@@H](C)CC)C(C)C)[C@@H](C)CC)[C@@H](C)CC)C(C)C)C(C)C) [SEQ ID NO 13] | 0.15 | 
Ac-IVLSLD[dV]PIKLK([γGlu-C18 diacid])KILLEQEKQKKQREQAETN[Thp″]QILAQV-NH2 (not fully specified; reading uncertain) | 0.16 | 
Pentanoyl-VLSLD[dV]PIGLK([γGlu-C20 diacid])KILLEQEKQKKQREQAETN[Aib]QILAQV-NH2 (SMILES CCCCC(=O)N[C@H](C(=O)N[C@@H](CC(C)C)C(=O)N[C@@H](CO)C(=O)N[C@@H](CC(C)C)C(=O)N[C@@H](CC(=O)O)C(=O)N[C@@H](C(=O)N1CCC[C@H]1C(=O)N[C@H](C(=O)NCC(=O)N[C@@H](CC(C)C)C(=O)N[C@@H](CCCCNC(=O)CC[C@H](NC(=O)CCCCCCCCCCCCCCCCCCC(=O)O)C(=O)O)C(=O)N[C@@H](CCCCN)C(=O)N[C@H](C(=O)N[C@@H](CC(C)C)C(=O)N[C@@H](CC(C)C)C(=O)N[C@@H](CCC(=O)O)C(=O)N[C@@H](CCC(N)=O)C(=O)N[C@@H](CCC(=O)O)C(=O)N[C@@H](CCCCN)C(=O)N[C@@H](CCC(N)=O)C(=O)N[C@@H](CCCCN)C(=O)N[C@@H](CCCCN)C(=O)N[C@@H](CCC(N)=O)C(=O)N[C@@H](CCCNC(=N)N)C(=O)N[C@@H](CCC(=O)O)C(=O)N[C@@H](CCC(N)=O)C(=O)N[C@@H](C)C(=O)N[C@@H](CCC(=O)O)C(=O)N[C@H](C(=O)N[C@@H](CC(N)=O)C(=O)NC(C)(C)C(=O)N[C@@H](CCC(N)=O)C(=O)N[C@H](C(=O)N[C@@H](CC(C)C)C(=O)N[C@@H](C)C(=O)N[C@@H](CCC(N)=O)C(=O)N[C@H](C(N)=O)C(C)C)[C@@H](C)CC)[C@@H](C)O)[C@@H](C)CC)[C@@H](C)CC)C(C)C)C(C)C) [SEQ ID NO 228] | 0.19 | 

The next lines start with the values.

EC50 [nM] (cAMP) [1] | Emax (% I) (CRF1R receptor) [%] | Binder
0.11 |  | [NMeI]VLSLD[dV]PIGLK([γGlu-C20 diacid])KILLEQEKQKKQREQAETN[Aib]QILAQV-NH2 (N-terminus assumed; SMILES CC[C@H](C)[C@H](NC)C(=O)N[C@H](C(=O)N[C@@H](CC(C)C)C(=O)N[C@@H](CO)C(=O)N[C@@H](CC(C)C)C(=O)N[C@@H](CC(=O)O)C(=O)N[C@@H](C(=O)N1CCC[C@H]1C(=O)N[C@H](C(=O)NCC(=O)N[C@@H](CC(C)C)C(=O)N[C@@H](CCCCNC(=O)CC[C@H](NC(=O)CCCCCCCCCCCCCCCCCCC(=O)O)C(=O)O)C(=O)N[C@@H](CCCCN)C(=O)N[C@H](C(=O)N[C@@H](CC(C)C)C(=O)N[C@@H](CC(C)C)C(=O)N[C@@H](CCC(=O)O)C(=O)N[C@@H](CCC(N)=O)C(=O)N[C@@H](CCC(=O)O)C(=O)N[C@@H](CCCCN)C(=O)N[C@@H](CCC(N)=O)C(=O)N[C@@H](CCCCN)C(=O)N[C@@H](CCCCN)C(=O)N[C@@H](CCC(N)=O)C(=O)N[C@@H](CCCNC(=N)N)C(=O)N[C@@H](CCC(=O)O)C(=O)N[C@@H](CCC(N)=O)C(=O)N[C@@H](C)C(=O)N[C@@H](CCC(=O)O)C(=O)N[C@H](C(=O)N[C@@H](CC(N)=O)C(=O)NC(C)(C)C(=O)N[C@@H](CCC(N)=O)C(=O)N[C@H](C(=O)N[C@@H](CC(C)C)C(=O)N[C@@H](C)C(=O)N[C@@H](CCC(N)=O)C(=O)N[C@H](C(N)=O)C(C)C)[C@@H](C)CC)[C@@H](C)O)[C@@H](C)CC)[C@@H](C)CC)C(C)C)C(C)C) [SEQ ID NO 229]
0.16 |  | Ac-IVLSLD[dV]PIKLK([AEEA-γGlu-C20 diacid])KILLEQEKQKKQREQAETN[Aib]QILAQV-NH2 (SMILES CC[C@H](C)[C@H](NC(C)=O)C(=O)N[C@H](C(=O)N[C@@H](CC(C)C)C(=O)N[C@@H](CO)C(=O)N[C@@H](CC(C)C)C(=O)N[C@@H](CC(=O)O)C(=O)N[C@@H](C(=O)N1CCC[C@H]1C(=O)N[C@H](C(=O)N[C@@H](CCCCN)C(=O)N[C@@H](CC(C)C)C(=O)N[C@@H](CCCCNC(=O)COCCOCCNC(=O)CC[C@H](NC(=O)CCCCCCCCCCCCCCCCCCC(=O)O)C(=O)O)C(=O)N[C@@H](CCCCN)C(=O)N[C@H](C(=O)N[C@@H](CC(C)C)C(=O)N[C@@H](CC(C)C)C(=O)N[C@@H](CCC(=O)O)C(=O)N[C@@H](CCC(N)=O)C(=O)N[C@@H](CCC(=O)O)C(=O)N[C@@H](CCCCN)C(=O)N[C@@H](CCC(N)=O)C(=O)N[C@@H](CCCCN)C(=O)N[C@@H](CCCCN)C(=O)N[C@@H](CCC(N)=O)C(=O)N[C@@H](CCCNC(=N)N)C(=O)N[C@@H](CCC(=O)O)C(=O)N[C@@H](CCC(N)=O)C(=O)N[C@@H](C)C(=O)N[C@@H](CCC(=O)O)C(=O)N[C@H](C(=O)N[C@@H](CC(N)=O)C(=O)NC(C)(C)C(=O)N[C@@H](CCC(N)=O)C(=O)N[C@H](C(=O)N[C@@H](CC(C)C)C(=O)N[C@@H](C)C(=O)N[C@@H](CCC(N)=O)C(=O)N[C@H](C(N)=O)C(C)C)[C@@H](C)CC)[C@@H](C)O)[C@@H](C)CC)[C@@H](C)CC)C(C)C)C(C)C) [SEQ ID NO 230]
